From publication PMC3718016 come the findings set out here.

Targets include SRPK1(ΔSα2) (UniProt Q96SB4); SRPK1(ΔNNT) (UniProt Q96SB4); SRPK1(ΔSINT) (UniProt Q96SB4); SRPK1(ΔSα1) (UniProt Q96SB4); SRPK1(ΔNCT) (UniProt Q96SB4).
Assay [1] addresses SRPK1(ΔS), SRPK1 without the spacer insert domain (UniProt Q96SB4).
The target in assay [2] is SRPK1(ΔN), SRPK1 without the N-terminus (UniProt Q96SB4).

For the substance “SR protein splicing factor 1 (SRSF1) (from UniProt Q07955 1-248) (natural protein)”, the kcat/KSR (steady-state kinetics with maximum viscosity effect) with SRPK1(ΔSα2) is 6.9e+06 M⁻¹ s⁻¹; with SRPK1(ΔSINT), 5.3e+06 M⁻¹ s⁻¹; with SRPK1(ΔSα1), 2.2e+06 M⁻¹ s⁻¹. Moreover, the Km for SRSF1 (KSR), steady-state phosphorylation of SRSF1 worked out at 0.14 µM in assay [1], 0.038 µM with SRPK1(ΔNNT), 0.44 µM in assay [2] and 0.41 µM with SRPK1(ΔNCT).
